Publication doi:10.1101/2024.10.14.618141 (bioRxiv, 2024)

Assays:
Experiment in all cases: pull-down
[1] = target: CDK12/Cyclin K complex, full-length (WT) CDK12 (human, UniProt Q9NYV4;O75909)
[2] = target: PAF1C-YY/AA (PAF1C containing CDC73-YY/AA) (human, UniProt Q6PD62;Q6P1J9;Q8WVC0;Q8N7H5;Q9GZS3, Y290A | Y293A)
[3] = target: PAF1 complex (five-subunit PAF1C, WT) (human, UniProt Q6PD62;Q6P1J9;Q8WVC0;Q8N7H5;Q9GZS3)

Chain of CDK12/Cyclin K complex, full-length (WT) CDK12 (Q9NYV4 whole entry, one chain of several): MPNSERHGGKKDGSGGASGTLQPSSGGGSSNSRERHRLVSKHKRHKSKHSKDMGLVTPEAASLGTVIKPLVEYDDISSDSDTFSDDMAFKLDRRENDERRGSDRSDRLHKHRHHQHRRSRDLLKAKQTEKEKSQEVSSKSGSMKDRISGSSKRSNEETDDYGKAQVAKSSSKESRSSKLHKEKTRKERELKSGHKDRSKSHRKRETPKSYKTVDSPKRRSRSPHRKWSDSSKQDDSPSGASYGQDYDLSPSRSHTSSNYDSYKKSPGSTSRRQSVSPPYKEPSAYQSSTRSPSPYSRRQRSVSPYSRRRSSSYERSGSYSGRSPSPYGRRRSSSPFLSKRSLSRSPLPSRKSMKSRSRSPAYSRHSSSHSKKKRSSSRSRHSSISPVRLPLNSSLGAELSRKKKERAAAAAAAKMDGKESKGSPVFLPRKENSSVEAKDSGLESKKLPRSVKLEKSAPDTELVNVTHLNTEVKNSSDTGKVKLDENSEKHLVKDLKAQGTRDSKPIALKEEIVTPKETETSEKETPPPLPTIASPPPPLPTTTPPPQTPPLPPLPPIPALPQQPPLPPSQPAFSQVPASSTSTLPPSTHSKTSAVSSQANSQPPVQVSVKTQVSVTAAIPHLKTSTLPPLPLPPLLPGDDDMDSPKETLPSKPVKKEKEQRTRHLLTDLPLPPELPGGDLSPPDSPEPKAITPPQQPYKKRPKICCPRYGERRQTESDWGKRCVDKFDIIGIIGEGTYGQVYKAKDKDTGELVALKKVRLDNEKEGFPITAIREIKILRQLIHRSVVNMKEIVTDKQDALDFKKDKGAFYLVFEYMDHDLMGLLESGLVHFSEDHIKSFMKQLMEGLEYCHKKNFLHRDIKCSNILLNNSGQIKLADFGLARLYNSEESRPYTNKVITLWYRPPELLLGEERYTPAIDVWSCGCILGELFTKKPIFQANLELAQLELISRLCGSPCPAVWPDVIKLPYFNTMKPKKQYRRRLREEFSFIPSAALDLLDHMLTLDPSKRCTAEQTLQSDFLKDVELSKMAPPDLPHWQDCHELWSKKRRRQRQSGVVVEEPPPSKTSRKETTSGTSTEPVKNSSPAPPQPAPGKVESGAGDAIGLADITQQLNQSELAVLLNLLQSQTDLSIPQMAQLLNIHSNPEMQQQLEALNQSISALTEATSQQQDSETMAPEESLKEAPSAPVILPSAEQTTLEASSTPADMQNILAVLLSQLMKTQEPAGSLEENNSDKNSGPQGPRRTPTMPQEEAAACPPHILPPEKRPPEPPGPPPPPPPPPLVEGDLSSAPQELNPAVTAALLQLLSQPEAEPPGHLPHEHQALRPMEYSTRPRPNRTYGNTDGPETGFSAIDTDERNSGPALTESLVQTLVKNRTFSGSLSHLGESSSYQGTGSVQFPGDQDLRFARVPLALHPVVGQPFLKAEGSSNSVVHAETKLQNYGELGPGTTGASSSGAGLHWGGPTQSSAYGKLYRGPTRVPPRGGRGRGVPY

binding result [1] | binding result [2] | binding result [3] | Binder
binds | – | – | Flag-GST-RPB1-CTD(1586-1971) (domain or fragment) GGAMSPSYSPTSPAYEPRSPGGYTPQSPSYSPTSPSYSPTSPSYSPTSPNYSPTSPSYSPTSPSYSPTSPSYSPTSPSYSPTSPSYSPTSPSYSPTSPSYSPTSPSYSPTSPSYSPTSPSYSPTSPSYSPTSPSYSPTSPSYSPTSPSYSPTSPSYSPTSPNYSPTSPNYTPTSPSYSPTSPSYSPTSPNYTPTSPNYSPTSPSYSPTSPSYSPTSPSYSPSSPRYTPQSPTYTPSSPSYSPSSPSYSPTSPKYTPTSPSYSPSSPEYTPTSPKYSPTSPKYSPTSPKYSPTSPTYSPTTPKYSPTSPTYSPTSPVYTPTSPKYSPTSPTYSPTSPKYSPTSPTYSPTSPKGSTYSPTSPGYSPTSPTYSLTSPAISPDDSDEEN
– | binds | binds | CDK12(KiD)/Cyclin K complex (complex) chain 1: not shown chain 2: MKENKENSSPSVTSANLDHTKPCWYWDKKDLAHTPSQLEGLDPATEARYRREGARFIFDVGTRLGLHYDTLATGIIYFHRFYMFHSFKQFPRYVTGACCLFLAGKVEETPKKCKDIIKTARSLLNDVQFGQFGDDPKEEVMVLERILLQTIKFDLQVEHPYQFLLKYAKQLKGDKNKIQKLVQMAWTFVNDSLCTTLSLQWEPEIIAVAVMYLAGRLCKFEIQEWTSKPMYRRWWEQFVQDVPVDVLEDICHQILDLYSQGKQQMPHHTPHQLQQPPSLQPTPQVPQVQQSQPSQSSEPSQPQQKDPQQPAQQQQPAQQPKKPSPQPSSPRQVKRAVVVSPKEENKAAEPPPPKIPKIETTHPPLPPAHPPPDRKPPLAAALGEAEPPGPVDATDLPKVQIPPPAHPAPVHQPPPLPHRPPPPPPSSYMTGMSTTSSYMSGEGYQSLQSMMKTEGPSYGALPPAYGPPAHLPYHPHVYPPNPPPPPVPPPPASFPPPAIPPPTPGYPPPPPTYNPNFPPPPPRLPPTHAVPPHPPPGLGLPPASYPPPAVPPGGQPPVPPPIPPPGMPPVGGLGRAAWMR
